IC50 data for one molecule are collected here from patent US7071299B2, “Peptide and polypeptide inhibitors of complement C1s” (ZymoGenetics, Inc., priority 2000, dated 2006).

Broadly, the IC50 is the concentration that gives 50% inhibition. High values mean a need for much substance, low ones inhibition by little substance.

Several values for one entry are separate records, joined by “and”; a condition that tells them apart may be missing. Equal values may be shown once.

For this assay, the target named is T1, Activated human C1s (Homo sapiens, UniProt P09871).
T1 construct: purchased Calbiochem-Novabiochem Corporation; San Diego, Calif
T1 sequence (P09871 16-437 limits assumed): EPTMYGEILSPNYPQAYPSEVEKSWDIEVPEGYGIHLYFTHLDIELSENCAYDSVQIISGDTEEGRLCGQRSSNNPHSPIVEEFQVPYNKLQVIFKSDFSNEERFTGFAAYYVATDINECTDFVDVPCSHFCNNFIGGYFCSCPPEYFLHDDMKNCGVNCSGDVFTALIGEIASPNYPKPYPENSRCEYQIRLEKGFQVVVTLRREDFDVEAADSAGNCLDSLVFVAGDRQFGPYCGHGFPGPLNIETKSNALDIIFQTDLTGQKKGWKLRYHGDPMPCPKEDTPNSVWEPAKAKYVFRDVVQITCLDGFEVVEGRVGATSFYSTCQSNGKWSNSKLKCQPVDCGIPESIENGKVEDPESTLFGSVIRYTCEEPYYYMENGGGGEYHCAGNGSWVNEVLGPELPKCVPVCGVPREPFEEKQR
T1 sequence (P09871 438-688 limits assumed): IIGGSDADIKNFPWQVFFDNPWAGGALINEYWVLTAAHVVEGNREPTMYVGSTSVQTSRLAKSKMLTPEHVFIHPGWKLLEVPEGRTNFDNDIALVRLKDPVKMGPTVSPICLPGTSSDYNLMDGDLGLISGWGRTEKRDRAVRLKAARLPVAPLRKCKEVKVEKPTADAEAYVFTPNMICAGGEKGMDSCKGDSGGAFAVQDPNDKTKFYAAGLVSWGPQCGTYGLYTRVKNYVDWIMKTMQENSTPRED
In words: C1s enzyme assay (chromogenic substrate Pefa-C1E, decrease in Vmax). Type of assay: biochemical. The conditions noted are these: Table 6, effect of posttranslational modifications on BD001 activity. As for the experimental part: C1s enzyme assays were performed in 96 well plates preincubated in the assay buffer for 30 minutes at room temperature. Activated human C1s (Calbiochem-Novabiochem Corporation; San Diego, Calif.); final assay concentration: 1.25 μg/ml), was incubated with samples in 50 mM Tris-HCl (pH 8) that contained 116 mM sodium chloride and 0.05% Polysorbate 80. The chromogenic substrate, Pefa-C1E (Centerchem, Inc.; Stamford, Conn.; final assay concentration: 0.4 mM), was added to the assay wells and the plate was read at 405 nm, 37° C., for 30 minutes at 20 second intervals on a SPECTRAmax PLUS plate reader (Molecular Devices Corporation; Sunnyvale, Calif.). Inhibition was determined as a decrease in Vmax, which is calculated as the maximum Δ milli-absorbance units/min over the assay period.
Three types of post-translational modifications have been identified in BD001: (1) glycosylation at Asn^23 consisting of a fucosylated complex-type core; (2) sulfation of at least one of Tyr^117, Tyr^119, and Tyr^121; and (3) proteolytic cleavage after Arg^65. The first two modifications have been identified in native BD001 as well as recombinant BD001 expressed in Baculovirus. The third modification is seen in a fraction of the recombinant BD001 expressed in Baculovirus. […] The identity of each species was verified using mass spectroscopy, and protein concentrations were measured using absorbance at 280 nm. […]

B1: BD001 isolated from tissue: native leech protein BD001 (SEQ ID NO:1) isolated from the salivary complexes of the leech; inhibits C1s (protein, listed as Haementaria ghilianii)
chain: AKKKLPKCQKQEDCGSWDLKCNNVTKKCECRNQVCGRGCPKERYQRDKYGCRKCLCKGCDGFKCRLGCTYGFKTDKKGCEAFCTCNTKETACVNIWCTDPYKCNPESGRCEDPNEEYEYDYE
modifications: native, isolated from leech
Take B1: the IC50 is 4 nM and 4.7 nM.
